Source: PMC4857006

Assays:
mTdp2cat [1] = biological target: T1, mTdp2cat (Mus musculus, UniProt Q9JJX7 118-370); assay: X-ray crystallography (1.55 A); product complex; Crystals: hTdp2cat-DNA in 90 mM Tris pH 7.0, 27% PEG600, 9% glycerol, 450 mM (NH4)2SO4; mTdp2cat-DNA as in ref 20. Proteolysis buffer not in the material. Trp f
T1 sequence: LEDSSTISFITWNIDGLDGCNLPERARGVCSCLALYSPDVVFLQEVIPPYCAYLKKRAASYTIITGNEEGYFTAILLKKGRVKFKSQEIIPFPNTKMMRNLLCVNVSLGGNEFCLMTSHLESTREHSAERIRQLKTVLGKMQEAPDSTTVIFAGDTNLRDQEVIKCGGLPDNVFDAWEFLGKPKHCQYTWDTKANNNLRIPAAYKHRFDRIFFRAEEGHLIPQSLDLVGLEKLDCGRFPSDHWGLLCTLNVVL

mTdp2cat [2] = biological target: T1, mTdp2cat; assay: X-ray crystallography; Mn2+ soak (5 mM MnCl2); Crystals: hTdp2cat-DNA in 90 mM Tris pH 7.0, 27% PEG600, 9% glycerol, 450 mM (NH4)2SO4; mTdp2cat-DNA as in ref 20. Proteolysis buffer not in the material. Trp f
hTdp2cat [3] = biological target: T2, hTdp2cat (Homo sapiens, UniProt O95551 108-362); assay: X-ray crystallography (3.2 A); product complex; Crystals: hTdp2cat-DNA in 90 mM Tris pH 7.0, 27% PEG600, 9% glycerol, 450 mM (NH4)2SO4; mTdp2cat-DNA as in ref 20. Proteolysis buffer not in the material. Trp f
T2 sequence: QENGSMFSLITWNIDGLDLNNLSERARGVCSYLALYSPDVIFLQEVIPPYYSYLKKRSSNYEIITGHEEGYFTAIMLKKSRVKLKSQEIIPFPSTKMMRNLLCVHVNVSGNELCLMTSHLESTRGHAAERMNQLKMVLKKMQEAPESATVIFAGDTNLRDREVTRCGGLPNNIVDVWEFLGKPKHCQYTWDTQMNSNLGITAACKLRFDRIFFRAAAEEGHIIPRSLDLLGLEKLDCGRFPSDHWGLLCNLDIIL

mTdp2cat [4] = biological target: T1, mTdp2cat; assay: X-ray crystallography (1.43 A); Mg2+; product complex; Crystals: hTdp2cat-DNA in 90 mM Tris pH 7.0, 27% PEG600, 9% glycerol, 450 mM (NH4)2SO4; mTdp2cat-DNA as in ref 20. Proteolysis buffer not in the material. Trp f
hTdp2cat [5] = biological target: T2, hTdp2cat; assay: limited proteolysis protection (chymotrypsin); with or without Mg2+; Crystals: hTdp2cat-DNA in 90 mM Tris pH 7.0, 27% PEG600, 9% glycerol, 450 mM (NH4)2SO4; mTdp2cat-DNA as in ref 20. Proteolysis buffer not in the material. Trp f
mTdp2cat [6] = biological target: T1, mTdp2cat; assay: limited proteolysis protection (trypsin, chymotrypsin); Mg2+; more protection than Mg2+ alone; Crystals: hTdp2cat-DNA in 90 mM Tris pH 7.0, 27% PEG600, 9% glycerol, 450 mM (NH4)2SO4; mTdp2cat-DNA as in ref 20. Proteolysis buffer not in the material. Trp f

B1: 5'-P dA DNA (dsDNA)
DNA 1: ACGAATTCG
DNA 2: ACGAATTCG
modifications: 5'-phosphate
binding result (mTdp2cat [1]): binds

B2: 5'-P dC DNA (dsDNA)
DNA 1: CCGAATTCG
DNA 2: CCGAATTCG
modifications: 5'-phosphate
binding result (mTdp2cat [2]): binds
binding result (hTdp2cat [3]): binds

B3: 5'-P epsilonA DNA (dsDNA)
DNA 1: ACGAATTCG
DNA 2: ACGAATTCG
modifications: 5'-phosphate; 5'-terminal A is 1-N6-ethenoadenine
binding result (mTdp2cat [4]): binds

B4: 12nt DNA (dsDNA)
DNA 1: CATCCGAATTCG
DNA 2: CATCCGAATTCG
modifications: 5'-phosphate
binding result (hTdp2cat [5]): binds
binding result (mTdp2cat [6]): binds
